Measurements from patent US20250074982A1 (CITY OF HOPE, published 2025).

Molecular target: CS1 on MM.1S multiple myeloma cells (human, UniProt Q9NQ25 23-335)
Assay: cell-based or functional assay

B1: CS1-dbBiTE (anti-CS1-huOKT3 dual specific bivalent T-cell engager: intact elotuzumab clicked to intact humanized OKT3 at their reduced hinge regions) (bispecific antibody, human IgG1, kappa)
heavy: not shown
light: DIQMTQSPSSLSASVGDRVTITCKASQDVGIAVAWYQQKPGKVPKLLIYWASTRHTGVPDRFSGSGSGTDFTLTISSLQPEDVATYYCQQYSSYPYTFGQGTKVEIKRTVAAPSVFIFPPSDEQLKSGTASVVCLLNNFYPREAKVQWKVDNALQSGNSQESVTEQDSKDSTYSLSSTLTLSKADYEKHKVYACEVTHQGLSSPVTKSFNRGEC
VH: QLVQSGGGVVQPGRSLRLSCKASGYTFTRYTMHWVRQAPGKGLEWIGYINPSRGYTNYNQKVKDRFTISTDKSKSTAFLQMDSLRPEDTAVYYCARYYDDHYCLDYWGQGTPVTV
VL: DIQMTQSPSSLSASVGDRVTITCSASSSVSYMNWYQQTPGKAPKRWIYDTSKLASGVPSRFSGSGSGTDYTFTISSLQPEDIATYYCQQWSSNPFTFGQGTKLQITR
modifications: one PEG5-N3 per light chain; reduced cysteines of the heavy chain alkylated with bromoacetamide-PEG5-N3, an average of 3 PEG5-N3/heavy chain; one DBCO/light chain (bromoacetamido-DBCO on reduced cysteine); reduced cysteines alkylated with bromoacetamido-DBCO, an average of 3 DBCO/heavy chain; clicked to PEG5-N3 on huOKT3
  IFN-γ and TNF-α positive cells detected by intracellular cytokine staining: > 2 fold
